These results are taken from publication PMC4419654, “LSD1 and HY5 antagonistically regulate red light induced-programmed cell death in Arabidopsis” (Frontiers in Plant Science, 2015).

As usually defined, the stoichiometry N is the number of molecules, sites or subunits per partner or assembly.

This series concerns the molecule itself. As to the kind of experiment: immunoblot of plant extract made without DTT; total protein of RL-treated WT plants extracted without DTT; the legend calls it an immunoprecipitation analysis; dimer and monomer LSD1 detected. In general terms: Immunoblotting shows a protein as a band on a membrane.

B1: lesion simulating disease 1 (LSD1) (natural protein, UniProt P94077 1-189, looked up)
chain: MKVADMQDQLVCHGCRNLLMYPRGASNVRCALCNTINMVPPPPPPHDMAHIICGGCRTMLMYTRGASSVRCSCCQTTNLVPAHSNQVAHAPSSQVAQINCGHCRTTLMYPYGASSVKCAVCQFVTNVNMSNGRVPLPTNRPNGTACPPSTSTSTPPSQTQTVVVENPMSVDESGKLVSNVVVGVTTDKK
notes: lesion simulating disease 1 (LSD1), C2C2 zinc finger protein with three zinc finger domains, Arabidopsis; detected with LSD1 antibody (Agrisera); source: endogenous, Arabidopsis WT plant total protein extract
As for B1, the “stoichiometry N” value amounted to 2.
